We go through one substance from PMC8964982.

This assay concerns the target discoidin domain receptor 1 (DDR1) (human (endogenous in primary human umbilical artery SMCs)) (UniProt Q08345). Kind of assay: atomic force microscopy.

Chain of discoidin domain receptor 1 (DDR1) (human (endogenous in primary human umbilical artery SMCs)) (Q08345 19-913): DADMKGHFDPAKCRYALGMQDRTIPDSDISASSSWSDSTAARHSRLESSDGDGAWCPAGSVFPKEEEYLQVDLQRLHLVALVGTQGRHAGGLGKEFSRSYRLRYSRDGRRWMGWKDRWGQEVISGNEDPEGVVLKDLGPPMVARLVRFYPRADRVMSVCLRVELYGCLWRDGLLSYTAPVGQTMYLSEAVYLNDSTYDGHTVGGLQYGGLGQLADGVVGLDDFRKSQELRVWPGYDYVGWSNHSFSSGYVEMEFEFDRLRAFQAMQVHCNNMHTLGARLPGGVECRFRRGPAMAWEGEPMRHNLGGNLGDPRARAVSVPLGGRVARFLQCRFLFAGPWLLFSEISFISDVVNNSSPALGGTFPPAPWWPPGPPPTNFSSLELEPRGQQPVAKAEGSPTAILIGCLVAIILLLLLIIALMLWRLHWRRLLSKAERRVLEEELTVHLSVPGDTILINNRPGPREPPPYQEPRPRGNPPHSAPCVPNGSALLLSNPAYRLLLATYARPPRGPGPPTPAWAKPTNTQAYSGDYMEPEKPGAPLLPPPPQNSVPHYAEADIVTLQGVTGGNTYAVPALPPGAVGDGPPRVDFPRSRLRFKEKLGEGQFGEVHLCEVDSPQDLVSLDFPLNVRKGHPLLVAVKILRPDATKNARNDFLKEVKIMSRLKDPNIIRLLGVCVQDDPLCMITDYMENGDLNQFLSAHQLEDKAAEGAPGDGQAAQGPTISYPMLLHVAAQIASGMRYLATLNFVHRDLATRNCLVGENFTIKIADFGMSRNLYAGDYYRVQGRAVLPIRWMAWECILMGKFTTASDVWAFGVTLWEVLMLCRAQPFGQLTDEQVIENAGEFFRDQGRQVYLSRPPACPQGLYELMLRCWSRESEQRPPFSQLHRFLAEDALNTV
Chain of Collagen type I (Corning), P02454 152-1207; P02466 86-1125 (ligand) (P02454 152-1207): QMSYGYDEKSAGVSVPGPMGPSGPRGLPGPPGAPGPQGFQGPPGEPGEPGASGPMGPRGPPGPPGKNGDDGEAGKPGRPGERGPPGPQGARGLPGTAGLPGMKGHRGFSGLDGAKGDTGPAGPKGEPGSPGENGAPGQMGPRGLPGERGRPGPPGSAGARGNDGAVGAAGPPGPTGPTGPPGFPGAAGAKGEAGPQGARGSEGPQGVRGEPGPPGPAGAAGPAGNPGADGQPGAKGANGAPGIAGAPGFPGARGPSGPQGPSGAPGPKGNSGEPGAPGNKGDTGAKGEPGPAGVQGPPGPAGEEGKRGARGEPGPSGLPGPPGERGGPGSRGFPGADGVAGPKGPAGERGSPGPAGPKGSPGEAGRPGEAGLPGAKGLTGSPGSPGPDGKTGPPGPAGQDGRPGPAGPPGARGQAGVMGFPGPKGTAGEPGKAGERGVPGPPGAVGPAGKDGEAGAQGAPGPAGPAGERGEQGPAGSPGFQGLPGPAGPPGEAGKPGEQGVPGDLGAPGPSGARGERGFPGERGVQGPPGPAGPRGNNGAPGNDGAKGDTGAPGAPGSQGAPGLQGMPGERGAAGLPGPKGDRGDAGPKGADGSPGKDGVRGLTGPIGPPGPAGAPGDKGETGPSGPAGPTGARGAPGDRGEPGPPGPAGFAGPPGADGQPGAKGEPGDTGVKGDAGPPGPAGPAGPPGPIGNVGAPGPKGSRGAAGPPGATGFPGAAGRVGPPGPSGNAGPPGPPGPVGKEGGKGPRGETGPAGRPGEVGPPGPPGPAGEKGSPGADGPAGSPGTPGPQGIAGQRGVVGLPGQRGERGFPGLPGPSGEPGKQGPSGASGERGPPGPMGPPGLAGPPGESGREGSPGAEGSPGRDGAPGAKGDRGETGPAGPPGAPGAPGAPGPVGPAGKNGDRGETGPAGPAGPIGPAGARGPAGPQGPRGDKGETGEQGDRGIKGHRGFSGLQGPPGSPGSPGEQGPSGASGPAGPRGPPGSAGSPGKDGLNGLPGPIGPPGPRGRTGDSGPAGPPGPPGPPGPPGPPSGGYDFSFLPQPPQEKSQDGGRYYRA
Chain of Collagen type I (Corning), P02454 152-1207; P02466 86-1125 (ligand) (P02466 86-1125): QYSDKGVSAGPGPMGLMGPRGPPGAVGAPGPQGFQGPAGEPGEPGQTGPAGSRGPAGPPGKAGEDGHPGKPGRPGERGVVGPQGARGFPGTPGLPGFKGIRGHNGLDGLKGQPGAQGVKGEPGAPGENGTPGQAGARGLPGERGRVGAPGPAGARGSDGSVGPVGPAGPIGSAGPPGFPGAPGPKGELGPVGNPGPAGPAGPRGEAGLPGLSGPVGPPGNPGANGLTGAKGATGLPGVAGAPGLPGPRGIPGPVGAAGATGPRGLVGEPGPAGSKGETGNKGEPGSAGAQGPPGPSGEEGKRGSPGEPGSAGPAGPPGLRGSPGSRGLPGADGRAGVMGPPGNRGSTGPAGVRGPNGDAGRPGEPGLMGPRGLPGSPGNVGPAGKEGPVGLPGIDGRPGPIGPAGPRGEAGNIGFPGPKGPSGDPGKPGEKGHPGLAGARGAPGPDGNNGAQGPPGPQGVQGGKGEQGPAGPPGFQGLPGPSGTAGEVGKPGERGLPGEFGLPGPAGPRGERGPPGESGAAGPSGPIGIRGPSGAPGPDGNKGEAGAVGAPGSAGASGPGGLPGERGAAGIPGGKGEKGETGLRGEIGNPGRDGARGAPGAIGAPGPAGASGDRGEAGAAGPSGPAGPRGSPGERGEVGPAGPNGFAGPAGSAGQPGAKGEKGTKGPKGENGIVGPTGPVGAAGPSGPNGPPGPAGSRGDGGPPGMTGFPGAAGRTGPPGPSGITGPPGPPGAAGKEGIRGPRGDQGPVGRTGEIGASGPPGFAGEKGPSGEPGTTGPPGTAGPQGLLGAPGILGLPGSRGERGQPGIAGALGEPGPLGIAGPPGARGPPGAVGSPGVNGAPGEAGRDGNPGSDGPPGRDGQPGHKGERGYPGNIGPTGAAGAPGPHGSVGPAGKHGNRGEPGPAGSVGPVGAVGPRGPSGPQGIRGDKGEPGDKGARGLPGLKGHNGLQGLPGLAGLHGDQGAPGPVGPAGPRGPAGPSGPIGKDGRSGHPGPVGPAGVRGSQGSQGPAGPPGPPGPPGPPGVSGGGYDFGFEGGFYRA

Substance “Collagen type I (Corning), P02454 152-1207; P02466 86-1125 (ligand)” yielded an adhesion probability (cells on soft gels) of 18.3% and an adhesion probability (cells on stiff gels) of 32.4%.
